From patent publication US20060115839A1 (published 2006)

Biological target: endogenous histone H3 in U2OS cells (human, UniProt P68431 2-136)
Assay: formaldehyde crosslinking in irradiated U2OS cells, nickel bead capture, H3 immunoblot (FIG. 3g)
Method: Non-transfected U2OS osteosarcoma cells and transfected U2OS cells expressing His-tagged GFP-53BP1 fusion proteins with wild-type or mutant (Asp1521Arg) 53BP1 sequences were pre-extracted with Triton-X100 in situ 15 min after irradiation and then treated with formaldehyde to crosslink interacting proteins. His-tagged GFP-53BP1 was then affinity-purified on nickel-coated beads and bound histone H3 was detected by immunoblotting after the crosslinks were reversed by boiling. Histone H3 was captured on beads incubated with extracts from His-tagged GFP-wild-type 53BP1 expressing cells treated with formaldehyde, but not on beads incubated with extracts from cells that were mock-crosslinked or that were expressing the Asp1521Arg mutant protein (FIG. 3g). Further, the crosslinking was specific for histone H3, because histone H2A, although present in the Triton-X100 insoluble material, was not captured by the beads (data not shown).
Proteins were crosslinked with formaldehyde³⁰. Parental U2OS cells and U2OS cells expressing N-terminally His-tagged GFP-53BP1 fusion proteins containing residues 1220-1711 of 53BP1 were exposed to 9 Gy IR. […] Histone H3 was detected by immunoblotting after the crosslinks were reversed by boiling.

B1: N-terminally His-tagged GFP-53BP1 fusion protein containing residues 1220-1711 of 53BP1 with Asp1521Arg (other)
chain: QGEEEFDMPQPPHGHVLHRHMRTIREVRTLVTRVITDVYYVDGTEVERKVTEETEEPIVECQECETEVSPSQTGGSSGDLGDISSFSSKASSLHRTSSGTSLSAMHSSGSSGKGAGPLRGKTSGTEPADFALPSSRGGPGKLSPRKGVSQTGTPVCEEDGDAGLGIRQGGKAPVTPRGRGRRGRPPSRTTGTRETAVPGPLGIEDISPNLSPDDKSFSRVVPRVPDSTRRTDVGAGALRRSDSPEIPFQAAAGPSDGLDASSPGNSFVGLRVVAKWSSNGYFYSGKITRDVGAGKYKLLFDRGYECDVLGKDILLCDPIPLDTEVTALSEDEYFSAGVVKGHRKESGELYYSIEKEGQRKWYKRMAVILSLEQGNRLREQYGLGPYEAVTPLTKAADISLDNLVEGKRKRRSNVSSPATPTASSSSSTTPTRKITESPRASMGVLSGKRKLITSEEERSPAKRGRKSATVKPGAVGAGEFVSPCESGDNTGE
notes: Expressed in U2OS cells; crosslinked in situ with formaldehyde; also called His-tagged GFP-53BP1 D1521R; Asp1521Arg mutant protein; not shown: N-terminal His tag and GFP, with any linkers
B1: no binding.
